Source: paper PMC3540207 (Nature structural & molecular biology, 2012)

Molecular target: ATG3 (human, recombinant) (human, UniProt Q9NT62 1-314)
Assay: ITC

Sequence of ATG3 (human, recombinant) (Q9NT62 whole entry): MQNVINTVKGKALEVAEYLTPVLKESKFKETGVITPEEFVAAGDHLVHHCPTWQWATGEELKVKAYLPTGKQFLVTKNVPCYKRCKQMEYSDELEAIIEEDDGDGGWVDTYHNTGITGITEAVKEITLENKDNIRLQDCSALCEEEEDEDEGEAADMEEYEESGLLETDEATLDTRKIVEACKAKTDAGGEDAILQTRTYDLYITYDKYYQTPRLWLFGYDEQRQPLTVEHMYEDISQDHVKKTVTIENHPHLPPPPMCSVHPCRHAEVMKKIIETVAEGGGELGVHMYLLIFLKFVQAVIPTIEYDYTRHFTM

B1: unconjugated ATG12 (human, recombinant) (natural protein, UniProt O94817 1-140, looked up)
chain: MAEEPQSVLQLPTSIAAGGEGLTDVSPETTTPEPPSSAAVSPGTEEPAGDTKKKIDILLKAVGDTPIMKTKKWAVERTRTIQGLIDFIKKFLKLVASEQLFIYVNQSFAPSPDQEVGTLYECFGSDGKLVLHYCKSQAWG
  Kd: 117 nM
